Results from US20040146964A1 (ISIS INNOVATION, published 2004).
Substitutions are numbered along the chain they refer to. Names may count otherwise. Where no end group is shown, it is not given here. [ ]: non-standard residue; d: D form. Hyp = O=C(O)[C@@H]1C[C@@H](O)CN1

How the values were obtained:
[1] = biological target: T1, VHL E3 ubiquitin ligase complex containing HA tagged human pVHL (human, UniProt P40337 1-213); test: VHL E3 interaction assay with 35S-labelled IVTT product
T1 construct: also called VHL E3 ligase; 786-0/VHL cell extract
T1 sequence (P40337 whole entry, one chain of several): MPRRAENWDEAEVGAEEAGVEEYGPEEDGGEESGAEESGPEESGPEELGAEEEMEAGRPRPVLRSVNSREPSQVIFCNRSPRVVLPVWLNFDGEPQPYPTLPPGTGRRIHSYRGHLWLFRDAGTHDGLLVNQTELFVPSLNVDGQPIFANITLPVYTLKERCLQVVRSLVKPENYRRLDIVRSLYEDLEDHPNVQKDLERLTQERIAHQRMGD

mutant (Pro86His) pVHL [2] = biological target: T2, mutant (Pro86His) pVHL (human, UniProt P40337 1-213); test: biotinylated peptide, after cell extract, capture on streptavidin beads
T2 construct: also called mutant pVHL
T2 sequence (P40337 whole entry P86H): as the sequence (P40337 whole entry, one chain of several) above, with P86H counted along it

[3] = biological target: T3, C. elegans HIF-α homologue, wild type (C. elegans, UniProt G5EGD2 1-719); test: anti-HA co-IP of reticulocyte IVTTs, ceHIF pre-treated with worm extract
T3 construct: 35S-labelled reticulocyte IVTT from pcDNA1cehif; also called ceHIF; HIF-1 (C. elegans)
T3 sequence: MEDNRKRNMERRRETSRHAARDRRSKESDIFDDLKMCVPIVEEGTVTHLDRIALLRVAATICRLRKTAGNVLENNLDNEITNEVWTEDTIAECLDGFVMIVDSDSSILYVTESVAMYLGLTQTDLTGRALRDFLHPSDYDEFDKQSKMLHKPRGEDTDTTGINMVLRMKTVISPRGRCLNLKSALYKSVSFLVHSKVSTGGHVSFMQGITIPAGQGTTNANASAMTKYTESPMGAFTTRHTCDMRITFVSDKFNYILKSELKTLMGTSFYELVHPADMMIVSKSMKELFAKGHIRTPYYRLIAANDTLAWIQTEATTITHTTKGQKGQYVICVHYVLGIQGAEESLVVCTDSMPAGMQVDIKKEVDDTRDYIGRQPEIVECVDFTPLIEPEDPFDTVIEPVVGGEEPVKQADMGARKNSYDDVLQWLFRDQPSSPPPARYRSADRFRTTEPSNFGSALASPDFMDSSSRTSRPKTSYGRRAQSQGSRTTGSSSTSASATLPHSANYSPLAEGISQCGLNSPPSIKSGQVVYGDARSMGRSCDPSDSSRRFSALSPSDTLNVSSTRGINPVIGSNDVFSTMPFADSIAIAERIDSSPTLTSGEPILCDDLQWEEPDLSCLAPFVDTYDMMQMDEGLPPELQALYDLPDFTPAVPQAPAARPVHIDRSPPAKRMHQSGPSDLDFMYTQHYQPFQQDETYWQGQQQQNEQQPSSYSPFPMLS

[4] = biological target: T4, C. elegans HIF P621G mutant (C. elegans, UniProt G5EGD2 1-719); test: anti-HA co-IP of IVTT products
T4 construct: also called ceHIF Pro621-Gly; pcDNA1cehif.P621G
T4 sequence: T3 sequence with P621G

mutant (Pro86His) pVHL [5] = biological target: T2, mutant (Pro86His) pVHL; test: biotinylated peptide capture on streptavidin beads

**Q.** Does PFSTQDTDLDLEMLAGYIPMDDDFQLRSFDQLSP (other) [tat-CODD proline mutant (HIF-1α 549-582/P564G)] bind [1]?
**A.** Result: no binding

**Q.** Does DLDLEMLAPYIPMDDDFQL (also: biotinylated version used in pVHL capture assays, also called 19:WT; 19 WT) [synthetic polypeptide of HIF-1α residues 556-574, unmodified] bind (mutant (Pro86His) pVHL [2])?
**A.** Result: no binding

B1: c-terminal HA tagged ceVHL (other, not shown: small tags and cut ends)
chain: MSDGSMDDDGRLFPDLGSSTHDNREIRVRFLNRCAYPVDVFWLNPSKQPTKYGTLAQKKYLDIKTFKDHPWVARRSFDGCKVLVNEKEVFWPEPAPRMNLIVRNHCVITMKVQSLREIAGRSFLRHNPTEVPNKIKGLPRELQFEVKHFLDRKQEYSEIVCRSIPPPGPQRPQQ
notes: also called ceVHL-HA
**Q.** What does the source list for B1?
**A.** binding result [3]: binds; binding result [4]: no binding

**Q.** Does DLDLEMLA[Hyp]YIPMDDDFQL (also: biotinylated version used in pVHL capture assays, also called 19:Pro564Hyp; B19Hyp) bind (mutant (Pro86His) pVHL [5])?
**A.** Result: no binding

B2: tat-NODD proline mutant (HIF-1α 343-417/P402A) (other)
chain: SGIIQHDLIFSLQQTECVLKPVESSDMKMTQLFTKVESEDTSSLFDKLKKEPDALTLLAAAAGDTIISLDFGSND
**Q.** Does B2 bind [1]?
**A.** Result: no binding
